Columns and labels:
[1] = target: adenosine A1 receptor fused to a hemi-Rluc8 (A1R-nRluc8) or to a hemi-Venus (A1R-nVenus) (human) (UniProt P30542)
[2] = target: the molecule itself; assay: single-particle tracking and brightness analysis (TIRFM); living HEK-293T cells expressing A1R-GFP alone or A2AR-mCherry alone; number of receptors in a particle from the brightness distribution of the individual particles

Chain of adenosine A1 receptor fused to a hemi-Rluc8 (A1R-nRluc8) or to a hemi-Venus (A1R-nVenus) (human) (P30542 whole entry, the tested form may be a part): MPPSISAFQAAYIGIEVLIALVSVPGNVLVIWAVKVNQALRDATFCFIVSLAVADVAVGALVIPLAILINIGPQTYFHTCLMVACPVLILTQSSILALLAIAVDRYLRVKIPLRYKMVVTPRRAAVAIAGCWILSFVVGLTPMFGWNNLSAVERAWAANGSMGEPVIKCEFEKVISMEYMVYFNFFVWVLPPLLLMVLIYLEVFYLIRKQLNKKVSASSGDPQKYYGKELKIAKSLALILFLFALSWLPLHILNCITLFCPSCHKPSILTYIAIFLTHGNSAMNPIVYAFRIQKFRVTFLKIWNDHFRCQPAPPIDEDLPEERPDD
Chain of α-subunit of Gi fused to Rluc (Gi-Rluc) (P63096 whole entry, the tested form may be a part): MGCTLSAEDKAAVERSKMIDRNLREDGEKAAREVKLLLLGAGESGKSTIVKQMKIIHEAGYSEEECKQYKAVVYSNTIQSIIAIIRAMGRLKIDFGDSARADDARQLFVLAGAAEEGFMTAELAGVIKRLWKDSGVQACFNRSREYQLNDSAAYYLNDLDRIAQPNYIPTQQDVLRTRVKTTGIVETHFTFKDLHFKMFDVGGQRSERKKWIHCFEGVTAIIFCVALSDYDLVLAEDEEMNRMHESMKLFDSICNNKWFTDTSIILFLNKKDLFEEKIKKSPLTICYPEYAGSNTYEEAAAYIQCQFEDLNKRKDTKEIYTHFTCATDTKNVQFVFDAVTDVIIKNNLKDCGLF

Molecule	decrease of BRETmax of the complementation BRET (A1R and A2AR fused to hemi-Rluc8 and hemi-Venus, the heterotetramer) after pertussis toxin (10 ng/ml, 16 h); endogenous Gi [1]	stoichiometry N [2]
α-subunit of Gi fused to Rluc (Gi-Rluc) (from UniProt P63096 1-354) (natural protein)	35%	–
adenosine A2A receptor fused to mCherry (A2AR-mCherry) (receptor, human, UniProt P29274 1-412, looked up, adenosine A2A receptor, human, UniProt P29274; The construct for single-particle tracking is not described in the main text; details may stand in Additional file 11 (Supplementary methods); also called A2A-mCherry; A2A-Cherry; source: HEK-293T, transiently transfected, on living cells; not shown: mCherry, C-terminal, kept) MPIMGSSVYITVELAIAVLAILGNVLVCWAVWLNSNLQNVTNYFVVSLAAADIAVGVLAIPFAITISTGFCAACHGCLFIACFVLVLTQSSIFSLLAIAIDRYIAIRIPLRYNGLVTGTRAKGIIAICWVLSFAIGLTPMLGWNNCGQPKEGKNHSQGCGEGQVACLFEDVVPMNYMVYFNFFACVLVPLLLMLGVYLRIFLAARRQLKQMESQPLPGERARSTLQKEVHAAKSLAIIVGLFALCWLPLHIINCFTFFCPDCSHAPLWLMYLAIVLSHTNSVVNPFIYAYRIREFRQTFRKIIRSHVLRQQEPFKAAGTSARVLAAHGSDGEQVSLRLNGHPPGVWANGSAPHPERRPNGYALGLVSGGSAQESQGNTGLPDVELLSHELKGVCPEPPGLDDPLAQDGAGVS	–	3
